Results taken from US20090104147A1.

Key:
[1] = target: recombinant sialoadhesin expressed on CHO cells (CHO-Sn); assay: cell-based or functional assay
[2] = target: porcine sialoadhesin (pig) (UniProt A7LCJ3); assay: cell-based or functional assay

mAb 41D3/saporin conjugate showed a % Living cells, CHO-Sn cells, conjugate concentration 0.1*10^-6 [1] of 64.4%, a % Living cells, CHO-Sn cells, conjugate concentration 0.25*10^-6 [1] of 57.1% and a % Living cells, CHO-Sn cells, conjugate concentration 0.5*10^-6 [1] of 64.2%. For the same substance, the % Living cells, CHO-Sn cells, conjugate concentration 10^-7 [1] was 63%, the MTT assay OD value, CHO-Sn cells, 25 [1] was 1.35 OD and the MTT assay OD value, CHO-Sn cells, column head 6.25 [1] was 1.45 OD. For the same substance, the MTT assay OD value, CHO-Sn cells, column head 12.5 [1] was 1.47 OD, the MTT assay OD value, CHO-Sn cells, column head 50 [1] was 1.47 OD and the % Living cells, primary porcine macrophages, conjugate concentration 0.3*10^-6 [2] was 30.4%. For the same substance, the % Living cells, primary porcine macrophages, conjugate concentration 10^-7 [2] was 29.3%, the MTT assay OD value, primary porcine macrophages, column head 10 [2] was 0.537 OD and the MTT assay OD value, primary porcine macrophages, column head 30 [2] was 0.541 OD.
